Experimental data taken from patent publication US10138280B2, “Polypeptides targeting glycosylated MUC2 proteins, methods of synthesis, their nucleic acids and uses thereof” (INSTITUT PASTEUR, priority 2011, dated 2018).

Tests used:
[1] = molecular target: T1, human colonic mucus (Homo sapiens, UniProt Q02817); experiment: Staining of human colon explants, two-photons microscopy
T1 construct: Segments of human colon (ascending, descending and sigmoid colon) were obtained from fully informed patients undergoing surgery; from tissue; host or cells: healthy human colon segments (live explants, mucus collected from them, Carnoy- or formol-fixed sections)
Method: FIGS. 3A-3B. Cy5-MUB70 colonic mucus binding property. (FIG. 3A) HT-29 MTX living cells were incubated for 2 h with Cy5-MUB70 in a serum-free media. The resulting fluorescent signal (red) was visualized at the surface of the cell layer using an epifluorescent microscope. Z-projection, performed using ImageJ software, allowed 3D localization of Cy5-MUB70 fluorescence signal in the mucus layer. Bar is 10 μm (FIG. 3B) MPE and SHG imaging of the binding of Cy5-MUB70 to the human colonic mucus. […] Human tissue autofluorescence is detected in the same red channel as Cy5.
FIGS. 8A-8D. (FIG. 8A) Cell toxicity of Cy5-MUB70 tested on HT-29-MTX and Hela epithelial cells. Cell survival was assessed using Sytoxgreen dye on cultures exposed to 1 μg/mL Cy5-MUB70 from 0 to 10 h, as indicated. […] Resulting fluorescent staining was assessed using a two-photons microscope (see Methods). Z-projection, performed using ImageJ software, allows 3D localization of Cy5-MUB70 fluorescence signal. […] Human tissue autofluorescence is detected in the same red channel as Cy5. […]
Two-photons microscopy imaging of live healthy human colonic segment was performed using a commercial laser-scanning microscope (LSM710, Meta, Zeiss, Germany). Tissue autofluorescence and Cy5-MUB70 (1 μg·ml^−1) were detected using multiphoton excitation (MPE, red) and collagen was detected using second harmonic generation (SHG, green). […]

[2] = molecular target: T2, human colonic mucus and goblet cells (Homo sapiens, UniProt Q02817); experiment: Fluorescent staining of healthy human colon, formol fixed, paraffin embedded samples
T2 construct: Segments of human colon (ascending, descending and sigmoid colon) were obtained from fully informed patients undergoing surgery; from tissue; host or cells: healthy human colon segments (live explants, mucus collected from them, Carnoy- or formol-fixed sections)
Method: FIG. 22. Schematic description of the Cy5-MUB40-1, Cy5-MUB40-2, Cy5-MUB40-3, Cy5-MUB40-4 peptides (SEQ ID NOS 62 to 65). Fluorescent staining of human colonic mucus was performed by the addition of 1 μg/mL of the corresponding Cy5-conjugated peptides with Phalloidin-RRX (1:100) on formol fixed, paraffin embedded samples. Image acquisition was performed using a fluorescent confocal microscope (see Methods).
FIG. 23 Comparative staining analysis of human colonic goblet cells using Cy5-MUB70 and Cy5-MUB40-1. Fluorescent staining of human colonic mucus was performed by the addition of 1 μg/mL of the corresponding Cy5-conjugated peptides with Phalloidin-RRX (1:100) on formol fixed, paraffin embedded samples. Image acquisition was performed using a fluorescent confocal microscope (see Methods).
FIGS. 24A-24B. Comparative human colonic mucus staining using MUB70-Cy5 on healthy tissues and mucinous carcinomas (Coic et al, JBC, 2012 (41)). Fluorescent staining of human colonic mucus was performed by the addition of 1 μg/mL of the corresponding Cy5-conjugated peptides with Phalloidin-RRX (1:100) on formol fixed, paraffin embedded samples. Image acquisition was performed using a fluorescent confocal microscope (see Methods).
As colonic mucinous carcinomas are characterized by abnormal overproduction of Muc2 in the colon mucosa (40), the inventors have hypothesized that Cy5-MUB70 could be used as a novel fluorescent marker for the diagnosis of this pathology. […] As shown previously on a healthy colon (FIG. 3B), the luminal mucus secreted fraction is detected by Cy5-MUB70 (FIG. 24A, top panel). […] This observation might be the consequence of a higher level of mucus compaction, resulting in a lower accessibility for MUB70 to bind Muc2. […] Cy5-MUB70 has been validated as a potent innovative diagnostic tool for colonic mucinous carcinoma detection and might be optimized with alternative markers (e.g. biotin) for practical clinical applications.

B1: Cy5-MUB70: Cy5-labelled MUB70 polypeptide, labelled via Cy5 maleimide on N-terminal cysteine (conjugate)
peptide: CVHVQYIDGETDQMLRQDDLDGYTDETIPYSTAEGIKKFEGDGYELFKDNFPAGEKFDNDDTNDQFYTVIF
- incubation time after which probe is widely detected in mucus layer ([1]; 1 mm thick mucus layer, human colon explant): 90 min
- mucus layer staining on human colon explants ([1]; ex vivo, 1 μg/mL, mucus width around 1000 μm, epithelium and lamina propria unstained): stained heterogeneously on the whole width
- mucosal staining in healthy colon tissues ([2]; colonic mucosa of healthy colon tissues from the same patients): no mucosal staining was observed
- luminal mucus secreted fraction staining in healthy colon ([2]; healthy colon, fixed): detected
- goblet cells binding ([2]; human colonic goblet cells, fixed samples, 1 μg/mL): not recognized
